Patent US20150353628A1 (published 2015)

B1: murine m1B7 antibody (antibody, V domains shown)
VH: QVQLQQPGSELVRPGASVKLSCKASGYKFTSYWMHWVKQRPGQGLEWIGNIFPGSGSTNYDEKFNSKATLTVDTSSNTAYMQLSSLTSEDSAVYYCTRWLSGAYFDYWGQGTTLTVSS
VL: QIVLTQSPALMSASPGEKVTMTCSASSSVSFMYWYQQKPRSSPKPWIYLTSNLPSGVPARFSGSGSGTSYSLTISSMEAEDAATYYCQQWSSHPPTFGSGTKLEIK
notes: also called parental murine 1B7 antibody; mouse 1B7
B2: murine m11E6 antibody (antibody, V domains shown)
VH: EVKVVESGGGLVQPGGSLRLSCTTSGFTFTDYYVSWVRQPPGKALEWLGFIRNKVNGYTTEFSSSVKGRFTISRDNSQSILYLQMNTLRVEDSATYYCARVSYYGRGWYFDYWGQGTTLTVSS
VL: DIVMTQSTSSLSASLGDRVTISCRASQDIDNYLSWFQQKPDGTVKLLIYYTSRLHSGVPSRFSGSGSGTDYSLTISSLDQEDIATYFCQQGNTFPWTFGGGTKLEIK
notes: also called parental murine 11E6 antibody; mouse 11E6
B3: chimeric 1B7 antibody (antibody, V domains shown)
VH: QVQLQQPGSELVRPGASVKLSCKASGYKFTSYWMHWVKQRPGQGLEWIGNIFPGSGSTNYDEKFNSKATLTVDTSSNTAYMQLSSLTSEDSAVYYCTRWLSGAYFDYWGQGTTLTVSS
VL: QIVLTQSPALMSASPGEKVTMTCSASSSVSFMYWYQQKPRSSPKPWIYLTSNLPSGVPARFSGSGSGTSYSLTISSMEAEDAATYYCQQWSSHPPTFGSGTKLEIK
notes: also called ch1B7
B4: chimeric 11E6 antibody (antibody, V domains shown)
VH: EVKVVESGGGLVQPGGSLRLSCTTSGFTFTDYYVSWVRQPPGKALEWLGFIRNKVNGYTTEFSSSVKGRFTISRDNSQSILYLQMNTLRVEDSATYYCARVSYYGRGWYFDYWGQGTTLTVSS
VL: DIVMTQSTSSLSASLGDRVTISCRASQDIDNYLSWFQQKPDGTVKLLIYYTSRLHSGVPSRFSGSGSGTDYSLTISSLDQEDIATYFCQQGNTFPWTFGGGTKLEIK
notes: also called ch11E6

Key:
pertussis toxin protein [1] = molecular target: T1, pertussis toxin protein (Bordetella pertussis, UniProt P04977 35-269; P04978 28-226; P04979 29-227; P0A3R5 43-152; P04981 35-133); assay: competition ELISA
T1 construct: also called PTx; PT

pertussis toxin protein [2] = molecular target: T1, pertussis toxin protein; assay: ELISA, PTx coated, anti-mouse-HRP secondary
From the text: Specifically, the pertussis toxin protein was used for coating while anti-mouse-HRP or anti-human Fc-HRP were used as secondary antibodies. TMB(3,3′,5,5′-Tetramethylbenzidine) was used as substrate for the assay.

pertussis toxin protein [3] = molecular target: T1, pertussis toxin protein; assay: pertussis toxin competition assay (ELISA read-out)

Row | Binder | Kd (pertussis toxin protein [1]) [pM] | EC50 (pertussis toxin protein [2]) [pM] | Kd (pertussis toxin protein [3]) [pM]
1 | B1 | 400 | 190 | 150
2 | B2 | 5000 | 2700 | 
3 | B3 | 500 |  | 
4 | B4 | 5000 |  | 
